Consider six molecules from paper PMC2903445 (Proteins, 2010).

For orientation: Kd means the concentration at which binding is half-saturated.

Holding throughout (test): fluorescence polarisation
Background: Fluorescence polarisation rises when a labelled molecule tumbles more slowly, as on binding a larger partner.

Test [1] has as its target Gαi1 K248E, S252L (human, UniProt P63096 26-354, K248E | S252L).
For test [2], the target named is Gαi1 I78S, A111Q (human, UniProt P63096 26-354, I78S | A111Q).
Gαi1 I78S, A111Q, sequence (P63096 26-354 I78S/A111Q): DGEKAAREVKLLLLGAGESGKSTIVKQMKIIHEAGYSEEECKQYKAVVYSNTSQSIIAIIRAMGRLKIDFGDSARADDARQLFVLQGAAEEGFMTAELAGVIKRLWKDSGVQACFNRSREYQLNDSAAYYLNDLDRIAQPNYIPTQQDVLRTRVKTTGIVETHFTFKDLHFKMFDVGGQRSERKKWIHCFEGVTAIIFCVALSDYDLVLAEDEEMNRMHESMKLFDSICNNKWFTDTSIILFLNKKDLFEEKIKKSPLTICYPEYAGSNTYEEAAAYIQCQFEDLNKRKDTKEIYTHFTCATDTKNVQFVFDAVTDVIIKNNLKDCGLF
Test [3] has as its target T1, Gαi1 (N-terminal-truncated, hexahistidine-tagged human Gαi1), wild type (human, UniProt P63096 26-354).
The target of test [4] is Gαi1 F223V, L249F, Q147L, E245L (human, UniProt P63096 26-354, F223V | L249F | Q147L | E245L).
Gαi1 F223V, L249F, Q147L, E245L, sequence (P63096 26-354 Q147L/F223V/E245L/L249F): as the sequence (P63096 26-354 I78S/A111Q) above, with S53I, Q86A, Q122L, F198V, E220L, L224F counted along it
In test [5] the target is T1, Gαi1 (N-terminal-truncated, …). The source holds these as a separate data set.
Test [6] deals with T2, Gαi1 F223V, L249F (human, UniProt P63096 26-354, F223V | L249F).
T2 sequence (P63096 26-354 F223V/L249F): as the sequence (P63096 26-354 I78S/A111Q) above, with S53I, Q86A, F198V, L224F counted along it
Test [7] deals with T2, Gαi1 F223V, L249F. This is another data set of the same source.
Test [8] has as its target Gαi1 E245L, L249A (human, UniProt P63096 26-354, E245L | L249A).

Positions count from the first letter of the chain named. In names and notes the source's numbering stands. Read-outs that look alike come from different tables or passages of the source. Ends that are not written are not given here. Where only a bound is given, the exact number is not on record here.

T1 sequence (P63096 26-354): as the sequence (P63096 26-354 I78S/A111Q) above, with S53I, Q86A counted along it
Gαi1 K248E, S252L, sequence (P63096 26-354 K248E/S252L): as the sequence (P63096 26-354 I78S/A111Q) above, with S53I, Q86A, K223E, S227L counted along it
Gαi1 E245L, L249A, sequence (P63096 26-354 E245L/L249A): as the sequence (P63096 26-354 I78S/A111Q) above, with S53I, Q86A, E220L, L224A counted along it

B1: GoLoco motif of RGS14 (496-531, Tenascin fusion) L503K (domain or fragment, UniProt O08773 496-531, looked up)
chain: DIEGLVEKLNRVQSSGAHDQRGLLRKEDLVLPEFLQ
modifications: also: 6-IAF fluorescein on the unique Cys (not in given chain)
On to B1, for which the Kd in test [1] stood at 80 ± 10 nM.

B2: GoLoco motif of RGS14 (496-531, Tenascin fusion) L519T (domain or fragment, UniProt O08773 496-531, looked up)
chain: B1 chain with K8L, L24T
modifications: also: 6-IAF fluorescein on the unique Cys (not in given chain)
For B2, the results for the equilibrium dissociation constant (Kd) in test [2] and in test [3] were more than 20000 nM and 16000 ± 5000 nM, respectively.

B3: GoLoco motif of RGS14 (residues 496-531) expressed as a fusion to Tenascin, wild type (domain or fragment, UniProt O08773 496-531, looked up)
chain: B1 chain with K8L
modifications: also: 6-IAF fluorescein on the unique Cys (not in given chain)
Turning to B3, the Kd in test [3] was found to be 100 ± 20 nM; in test [1], 320 ± 60 nM.

B4: GoLoco motif of RGS14 (496-531, Tenascin fusion) L504A, F529W (domain or fragment, UniProt O08773 496-531, looked up)
chain: B1 chain with K8L, L9A, F34W
modifications: also: 6-IAF fluorescein on the unique Cys (not in given chain)
On to B4, for which the dissociation constant Kd in test [4] was 40 ± 100 nM; in test [3] it was more than 5000 nM; in test [5], approximately 5000 nM.

B5: GoLoco motif of RGS14 (496-531, Tenascin fusion) L504A (domain or fragment, UniProt O08773 496-531, looked up)
chain: B1 chain with K8L, L9A
modifications: also: 6-IAF fluorescein on the unique Cys (not in given chain)
Take B5: the Kd in test [3] was 2400 ± 1000 nM; in test [6] it was more than 5000 nM; in test [7] it was approximately 5000 nM.

B6: GoLoco motif of RGS14 (496-531, Tenascin fusion) V507M (domain or fragment, UniProt O08773 496-531, looked up)
chain: B1 chain with K8L, V12M
modifications: also: 6-IAF fluorescein on the unique Cys (not in given chain)
In the case of B6, the results for the Kd in test [3] and in test [8] were 1040 ± 60 nM and 50 ± 10 nM, respectively.
